In article PMC9359501 (Med (New York, N.Y.), 2022):

Target: SARS-CoV-2 Spike S1 (Omicron), His-tagged (SARS-CoV-2 Omicron B.1.1.529 BA.1, strain)
Test: SPR

Binder | Kd [nM] | koff [s⁻¹] | kon [M⁻¹ s⁻¹]
LY-CoV1404 (bebtelovimab) reference clone neutralizing antibody (antibody, V domains shown) VH: QITLKESGPTLVKPTQTLTLTCTFSGFSLSISGVGVGWLRQPPGKALEWLALIYWDDDKRYSPSLKSRLTISKDTSKNQVVLKMTNIDPVDTATYYCAHHSISTIFDHWGQGTLVTVSS VL: QSALTQPASVSGSPGQSITISCTATSSDVGDYNYVSWYQQHPGKAPKLMIFEVSDRPSGISNRFSGSKSGNTASLTISGLQAEDEADYYCSSYTTSSAVFGGGTKLTVL | 85.5 | 0.00677 | 79200
S309 (sotrovimab) reference clone neutralizing antibody (antibody, V domains shown) VH: not shown VL: EIVLTQSPGTLSLSPGERATLSCRASQTVSSTSLAWYQQKPGQAPRLLIYGASSRATGIPDRFSGSGSGTDFTLTISRLEPEDFAVYYCQQHDTSLTFGGGTKVEIK | 24.5 | 0.000395 | 16200
